Measured values taken from patent US20190361034A1.

Legend:
[1] = target: MHC class II molecules on MHC class II-expressing Raji cells (human); test: cell-based or functional assay
[2] = target: MHC class II molecules on MHC class II-expressing Raji cells (human); test: BLI; immobilised sample, Raji cells in solution; FIG. 24
[3] = target: MHC class II molecules on MHC class II-expressing Raji cells (human); test: BLI; immobilised sample, Raji cells in solution; FIG. 23

Bioactivity (CCL4 release) [1] [%] | Bioactivity (binding) [2] [%] | Bioactivity (binding) [3] [%] | Substance
15 |  |  | IMP321, Acid pH 3.1 at RT (1 D = 1 day) (Fc fusion)
10 |  |  | IMP321 Oxidation, 1% H2O2 at 37° C. (1 D = 1 day) (Fc fusion)
7 |  |  | IMP321, Acid pH 3.0 at RT (1 D = 1 day) (Fc fusion)

More lines, now with the values behind:

Substance | Bioactivity (CCL4 release) [1] [%] | Bioactivity (binding) [2] [%] | Bioactivity (binding) [3] [%]
IMP321, Light, 10 D = 10 days (Fc fusion) | 73 | 75 | 
IMP321 Oxidation, 0.1% H2O2 at 37° C. (1 D = 1 day) (Fc fusion) | 21 |  | 
IMP321, Light, 5 D = 5 days (Fc fusion) | 87 |  | 74
IMP321, Acid pH 3.6 at RT (1 D = 1 day) (Fc fusion) | 29 |  | 
IMP321, Alkali pH 9.2 at 37° C. (1 D = 1 day) (Fc fusion) | 17 |  | 
